# Source: US20070128661A1 (Harvard, published 2007)
# T1: Flag-tagged T-bet (wild type), immunoprecipitated from 293T cells (UniProt Q9JKD8)
# T1 sequence: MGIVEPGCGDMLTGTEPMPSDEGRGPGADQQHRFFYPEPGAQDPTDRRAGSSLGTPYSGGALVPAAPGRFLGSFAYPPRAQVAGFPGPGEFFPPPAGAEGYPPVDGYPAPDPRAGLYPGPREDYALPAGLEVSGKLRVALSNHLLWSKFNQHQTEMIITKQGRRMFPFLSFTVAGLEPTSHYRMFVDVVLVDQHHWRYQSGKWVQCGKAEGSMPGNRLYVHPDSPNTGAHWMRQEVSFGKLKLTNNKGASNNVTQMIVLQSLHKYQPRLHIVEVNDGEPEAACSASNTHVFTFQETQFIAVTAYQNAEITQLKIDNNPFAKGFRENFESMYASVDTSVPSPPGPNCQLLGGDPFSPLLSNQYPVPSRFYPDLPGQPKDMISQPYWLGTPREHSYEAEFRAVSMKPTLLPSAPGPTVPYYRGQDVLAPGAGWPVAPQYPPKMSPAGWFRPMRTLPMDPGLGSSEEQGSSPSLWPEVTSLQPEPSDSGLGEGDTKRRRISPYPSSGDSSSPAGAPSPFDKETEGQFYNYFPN
# T2: Flag-tagged T-bet S508A mutant, immunoprecipitated from 293T cells (UniProt Q9JKD8)
# T2 sequence: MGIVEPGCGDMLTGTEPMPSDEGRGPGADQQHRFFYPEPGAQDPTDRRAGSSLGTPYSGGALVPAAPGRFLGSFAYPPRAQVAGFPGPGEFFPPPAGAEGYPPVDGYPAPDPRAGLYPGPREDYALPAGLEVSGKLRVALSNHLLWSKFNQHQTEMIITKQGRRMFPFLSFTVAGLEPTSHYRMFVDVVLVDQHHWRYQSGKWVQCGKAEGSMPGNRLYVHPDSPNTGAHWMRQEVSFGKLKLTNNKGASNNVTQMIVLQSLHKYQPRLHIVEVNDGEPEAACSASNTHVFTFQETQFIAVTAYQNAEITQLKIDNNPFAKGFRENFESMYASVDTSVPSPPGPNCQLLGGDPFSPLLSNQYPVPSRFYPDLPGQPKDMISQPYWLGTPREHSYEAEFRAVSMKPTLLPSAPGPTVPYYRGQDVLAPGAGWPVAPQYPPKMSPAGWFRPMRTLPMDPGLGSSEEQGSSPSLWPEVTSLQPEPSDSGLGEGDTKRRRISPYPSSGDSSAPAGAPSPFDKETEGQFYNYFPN
# T3: Flag-tagged T-bet S498A control mutant, immunoprecipitated from 293T cells (UniProt Q9JKD8)
# T3 sequence: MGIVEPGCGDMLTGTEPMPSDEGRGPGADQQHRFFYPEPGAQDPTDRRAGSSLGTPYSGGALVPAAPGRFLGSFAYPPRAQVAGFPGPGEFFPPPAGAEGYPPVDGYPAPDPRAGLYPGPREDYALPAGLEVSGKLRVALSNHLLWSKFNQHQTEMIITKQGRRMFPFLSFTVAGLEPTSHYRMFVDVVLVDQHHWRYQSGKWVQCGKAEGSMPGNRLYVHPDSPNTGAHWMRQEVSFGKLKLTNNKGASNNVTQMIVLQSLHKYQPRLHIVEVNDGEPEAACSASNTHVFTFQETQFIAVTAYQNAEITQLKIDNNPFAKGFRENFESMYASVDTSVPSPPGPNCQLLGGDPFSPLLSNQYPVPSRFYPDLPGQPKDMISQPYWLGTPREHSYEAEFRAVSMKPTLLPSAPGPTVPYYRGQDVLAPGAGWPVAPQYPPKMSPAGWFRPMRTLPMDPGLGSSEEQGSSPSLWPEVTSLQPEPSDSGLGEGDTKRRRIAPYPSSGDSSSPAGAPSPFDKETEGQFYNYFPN
# Tests used:
# [1] = molecular target: T1, Flag-tagged T-bet (wild type), immunoprecipitated from 293T cells
# [2] = molecular target: T2, Flag-tagged T-bet S508A mutant, immunoprecipitated from 293T cells
# [3] = molecular target: T3, Flag-tagged T-bet S498A control mutant, immunoprecipitated from 293T cells
# RelA (NF-kB p65) = settings: ChIP real-time PCR; binding increase in T-bet-/- Th1 cells versus wt
# [4] = molecular target: endogenous RelA in mouse Th1 cells (mouse, UniProt Q04207 1-549); experiment: cell-based or functional assay
# Sequence of endogenous RelA in mouse Th1 cells (Q04207 whole entry): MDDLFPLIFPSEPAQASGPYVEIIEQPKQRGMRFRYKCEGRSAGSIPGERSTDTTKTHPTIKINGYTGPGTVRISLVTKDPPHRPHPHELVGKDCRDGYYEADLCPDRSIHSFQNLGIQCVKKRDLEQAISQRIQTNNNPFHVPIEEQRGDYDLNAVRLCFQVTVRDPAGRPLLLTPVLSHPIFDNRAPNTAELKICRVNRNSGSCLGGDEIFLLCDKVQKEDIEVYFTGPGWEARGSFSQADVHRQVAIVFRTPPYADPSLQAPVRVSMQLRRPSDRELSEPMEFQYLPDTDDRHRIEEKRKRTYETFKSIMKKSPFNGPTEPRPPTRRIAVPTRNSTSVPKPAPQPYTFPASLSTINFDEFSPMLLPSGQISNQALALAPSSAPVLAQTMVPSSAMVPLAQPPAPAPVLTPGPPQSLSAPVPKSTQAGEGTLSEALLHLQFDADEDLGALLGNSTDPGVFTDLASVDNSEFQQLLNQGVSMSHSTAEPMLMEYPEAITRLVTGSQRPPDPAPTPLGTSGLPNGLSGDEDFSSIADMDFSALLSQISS
Molecule,"in vitro phosphorylation of T-bet (γ-[32P]ATP, autoradiography) [1]","in vitro phosphorylation of T-bet (γ-[32P]ATP, autoradiography) [2]","in vitro phosphorylation of T-bet (γ-[32P]ATP, autoradiography) [3]",also measured
casein kinase I (recombinant),"CKI, but not active ERK, phosphorylated T-bet protein in vitro","CKI-mediated phosphorylation of the S508A mutant, but not the S498A control mutant, was dramatically reduced compared to wt","CKI-mediated phosphorylation of the S508A mutant, but not the S498A control mutant, was dramatically reduced compared to wt",
IL-2 promoter chromatin (ChIP amplicon),,,,binding signal (RelA (NF-kB p65)): 4.5 fold
PKA (recombinant),T-bet was also phosphorylated by PKA but with 1000-fold lesser efficiency than CKI,"PKA-induced phosphorylation was not different among the wt, S508A and S498A T-bet proteins","PKA-induced phosphorylation was not different among the wt, S508A and S498A T-bet proteins",
active ERK (recombinant),"CKI, but not active ERK, phosphorylated T-bet protein in vitro",,,
glycogen synthase kinase-3 (recombinant),,,,in vitro phosphorylation of T-bet by GSK-3 after prephosphorylation with CKI (γ-[32P]ATP) [1]: Hyperphosphorylation of T-bet by GSK-3 was apparent; in vitro phosphorylation of T-bet by GSK-3 after prephosphorylation with CKI (γ-[32P]ATP) [2]: GSK-3-mediated phosphorylation was markedly decreased in the S508A mutant; in vitro phosphorylation of T-bet by GSK-3 after prephosphorylation with CKI (γ-[32P]ATP) [3]: GSK-3 induced wt levels of phosphorylation in the S498A mutant
"endogenous T-bet in mouse Th1 cells (other, UniProt Q9JKD8 1-530, looked up, phosphoserine at S508 found by mass spectrometry in primary Th1 cells) MGIVEPGCGDMLTGTEPMPSDEGRGPGADQQHRFFYPEPGAQDPTDRRAGSSLGTPYSGGALVPAAPGRFLGSFAYPPRAQVAGFPGPGEFFPPPAGAEGYPPVDGYPAPDPRAGLYPGPREDYALPAGLEVSGKLRVALSNHLLWSKFNQHQTEMIITKQGRRMFPFLSFTVAGLEPTSHYRMFVDVVLVDQHHWRYQSGKWVQCGKAEGSMPGNRLYVHPDSPNTGAHWMRQEVSFGKLKLTNNKGASNNVTQMIVLQSLHKYQPRLHIVEVNDGEPEAACSASNTHVFTFQETQFIAVTAYQNAEITQLKIDNNPFAKGFRENFESMYASVDTSVPSPPGPNCQLLGGDPFSPLLSNQYPVPSRFYPDLPGQPKDMISQPYWLGTPREHSYEAEFRAVSMKPTLLPSAPGPTVPYYRGQDVLAPGAGWPVAPQYPPKMSPAGWFRPMRTLPMDPGLGSSEEQGSSPSLWPEVTSLQPEPSDSGLGEGDTKRRRISPYPSSGDSSSPAGAPSPFDKETEGQFYNYFPN",,,,"IL-2 promoter binding of RelA by ChIP with real-time PCR, T-bet-/- versus wt Th1 cells [4]: 4.5 fold"
